# Data: patent US20220229068A1, “DETECTION OF PROTEIN TO PROTEIN INTERACTIONS” (THE GOVERNING COUNCIL OF THE UNIVERSITY OF TORONTO, priority 2019, published 2022)
# Legend:
# [1] = molecular target: NFE2L1 (prey, CIC format) (human) (UniProt Q14494); test: SIMPL ELISA, bait-IN/prey-CIC
# [2] = molecular target: SKR-2 (C. elegans prey, IC format) (C. elegans); test: SIMPL ELISA, C. elegans lysate, IN/IC; ratio of spliced signal to total signal
# [3] = molecular target: SKR-2 (C. elegans prey, CIC format) (C. elegans); test: SIMPL ELISA, C. elegans lysate, IN/CIC; ratio of spliced signal to total signal
# [4] = molecular target: T1, NRG1 (prey, CIC format) (human) (UniProt Q02297); test: SIMPL ELISA, bait-IN/prey-CIC
# T1 sequence (looked up): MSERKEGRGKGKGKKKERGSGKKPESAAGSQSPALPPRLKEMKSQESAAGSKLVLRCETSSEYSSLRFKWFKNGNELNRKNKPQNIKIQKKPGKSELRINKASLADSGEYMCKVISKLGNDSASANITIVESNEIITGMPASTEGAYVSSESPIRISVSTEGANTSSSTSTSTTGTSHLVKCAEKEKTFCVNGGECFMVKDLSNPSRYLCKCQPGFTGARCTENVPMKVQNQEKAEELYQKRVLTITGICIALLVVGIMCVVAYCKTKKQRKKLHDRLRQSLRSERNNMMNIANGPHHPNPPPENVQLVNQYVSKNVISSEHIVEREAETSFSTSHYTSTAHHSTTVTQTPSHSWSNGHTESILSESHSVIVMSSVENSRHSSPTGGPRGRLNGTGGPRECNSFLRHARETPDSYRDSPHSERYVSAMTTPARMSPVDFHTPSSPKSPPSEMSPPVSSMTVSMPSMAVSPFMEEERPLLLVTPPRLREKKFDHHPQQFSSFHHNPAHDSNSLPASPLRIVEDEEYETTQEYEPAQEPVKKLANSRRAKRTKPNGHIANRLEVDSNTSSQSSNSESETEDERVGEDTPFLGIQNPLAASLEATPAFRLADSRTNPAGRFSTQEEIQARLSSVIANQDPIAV
# [5] = molecular target: FOS (prey, CIC format) (human) (UniProt P01100); test: SIMPL ELISA, bait-IN/prey-CIC
# [6] = molecular target: RAP1A (prey, CIC format) (human) (UniProt P62834); test: SIMPL ELISA, bait-IN/prey-CIC
# [7] = molecular target: T2, ARFIP2 (prey, CIC format) (human) (UniProt P53365); test: SIMPL ELISA, bait-IN/prey-CIC
# T2 sequence (looked up): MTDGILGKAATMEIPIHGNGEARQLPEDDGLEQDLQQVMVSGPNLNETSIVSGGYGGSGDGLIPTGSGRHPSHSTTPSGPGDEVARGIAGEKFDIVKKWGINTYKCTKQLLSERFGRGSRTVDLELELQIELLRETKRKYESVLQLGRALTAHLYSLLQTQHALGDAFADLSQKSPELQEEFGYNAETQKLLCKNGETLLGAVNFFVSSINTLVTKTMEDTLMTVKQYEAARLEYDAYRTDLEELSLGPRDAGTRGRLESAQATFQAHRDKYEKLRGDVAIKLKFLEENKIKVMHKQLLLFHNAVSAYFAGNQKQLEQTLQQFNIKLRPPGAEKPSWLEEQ
# [8] = molecular target: CDK6 (prey, CIC format) (human) (UniProt Q00534); test: SIMPL ELISA, bait-IN/prey-CIC
# [9] = molecular target: PEX16 (prey, CIC format) (human) (UniProt Q9Y5Y5); test: SIMPL ELISA, bait-IN/prey-CIC
# [10] = molecular target: RPA3 (prey, CIC format) (human) (UniProt P35244); test: SIMPL ELISA, bait-IN/prey-CIC
# [11] = molecular target: HSP90AA1 (prey, CIC format) (human) (UniProt P07900); test: SIMPL ELISA, bait-IN/prey-CIC
# [12] = molecular target: IGFBP4 (prey, CIC format) (human) (UniProt P22692); test: SIMPL ELISA, bait-IN/prey-CIC
# [13] = molecular target: SMAD4 (prey, CIC format) (human) (UniProt Q13485); test: SIMPL ELISA, bait-IN/prey-CIC
# [14] = molecular target: CXCR2 (prey, CIC format) (human) (UniProt P25025); test: SIMPL ELISA, bait-IN/prey-CIC
# [15] = molecular target: PDGFRB (prey, CIC format) (human) (UniProt P09619); test: SIMPL ELISA, bait-IN/prey-CIC
# [16] = molecular target: T3, NOD1 (prey, CIC format) (human) (UniProt Q9Y239); test: SIMPL ELISA, bait-IN/prey-CIC
# T3 sequence (looked up): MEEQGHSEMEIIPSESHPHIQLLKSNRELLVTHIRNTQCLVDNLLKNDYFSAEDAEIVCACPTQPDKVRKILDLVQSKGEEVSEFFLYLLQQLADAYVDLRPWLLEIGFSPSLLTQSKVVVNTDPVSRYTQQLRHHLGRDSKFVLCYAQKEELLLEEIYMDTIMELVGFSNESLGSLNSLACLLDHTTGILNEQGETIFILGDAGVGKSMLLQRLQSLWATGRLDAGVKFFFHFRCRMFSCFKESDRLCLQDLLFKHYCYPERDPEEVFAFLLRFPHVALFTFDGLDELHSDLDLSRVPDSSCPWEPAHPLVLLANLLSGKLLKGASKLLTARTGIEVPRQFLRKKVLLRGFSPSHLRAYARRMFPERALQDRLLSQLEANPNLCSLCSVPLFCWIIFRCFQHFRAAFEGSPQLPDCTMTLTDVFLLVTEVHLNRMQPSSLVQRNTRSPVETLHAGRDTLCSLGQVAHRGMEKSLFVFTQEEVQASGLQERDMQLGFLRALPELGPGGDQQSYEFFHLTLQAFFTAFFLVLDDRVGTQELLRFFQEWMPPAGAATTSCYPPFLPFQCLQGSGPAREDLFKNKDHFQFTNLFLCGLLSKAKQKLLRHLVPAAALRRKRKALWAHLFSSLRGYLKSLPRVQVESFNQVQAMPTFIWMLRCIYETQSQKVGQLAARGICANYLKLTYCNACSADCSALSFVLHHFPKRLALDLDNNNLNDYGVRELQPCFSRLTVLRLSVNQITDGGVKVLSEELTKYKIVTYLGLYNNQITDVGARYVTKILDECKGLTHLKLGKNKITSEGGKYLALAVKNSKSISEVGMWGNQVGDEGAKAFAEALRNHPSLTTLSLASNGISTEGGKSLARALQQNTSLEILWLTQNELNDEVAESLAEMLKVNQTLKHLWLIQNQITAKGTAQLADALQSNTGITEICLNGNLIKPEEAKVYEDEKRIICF
# [17] = molecular target: HGS (prey, CIC format) (human) (UniProt O14964); test: SIMPL ELISA, bait-IN/prey-CIC
# [18] = molecular target: SKP2 (prey, CIC format) (human) (UniProt Q13309); test: SIMPL ELISA, bait-IN/prey-CIC
# [19] = molecular target: FGFR1 (prey, CIC format) (human) (UniProt P11362); test: SIMPL ELISA, bait-IN/prey-CIC
# [20] = molecular target: T4, RB1 (prey, CIC format) (human) (UniProt P06400); test: SIMPL ELISA, bait-IN/prey-CIC
# T4 sequence (looked up): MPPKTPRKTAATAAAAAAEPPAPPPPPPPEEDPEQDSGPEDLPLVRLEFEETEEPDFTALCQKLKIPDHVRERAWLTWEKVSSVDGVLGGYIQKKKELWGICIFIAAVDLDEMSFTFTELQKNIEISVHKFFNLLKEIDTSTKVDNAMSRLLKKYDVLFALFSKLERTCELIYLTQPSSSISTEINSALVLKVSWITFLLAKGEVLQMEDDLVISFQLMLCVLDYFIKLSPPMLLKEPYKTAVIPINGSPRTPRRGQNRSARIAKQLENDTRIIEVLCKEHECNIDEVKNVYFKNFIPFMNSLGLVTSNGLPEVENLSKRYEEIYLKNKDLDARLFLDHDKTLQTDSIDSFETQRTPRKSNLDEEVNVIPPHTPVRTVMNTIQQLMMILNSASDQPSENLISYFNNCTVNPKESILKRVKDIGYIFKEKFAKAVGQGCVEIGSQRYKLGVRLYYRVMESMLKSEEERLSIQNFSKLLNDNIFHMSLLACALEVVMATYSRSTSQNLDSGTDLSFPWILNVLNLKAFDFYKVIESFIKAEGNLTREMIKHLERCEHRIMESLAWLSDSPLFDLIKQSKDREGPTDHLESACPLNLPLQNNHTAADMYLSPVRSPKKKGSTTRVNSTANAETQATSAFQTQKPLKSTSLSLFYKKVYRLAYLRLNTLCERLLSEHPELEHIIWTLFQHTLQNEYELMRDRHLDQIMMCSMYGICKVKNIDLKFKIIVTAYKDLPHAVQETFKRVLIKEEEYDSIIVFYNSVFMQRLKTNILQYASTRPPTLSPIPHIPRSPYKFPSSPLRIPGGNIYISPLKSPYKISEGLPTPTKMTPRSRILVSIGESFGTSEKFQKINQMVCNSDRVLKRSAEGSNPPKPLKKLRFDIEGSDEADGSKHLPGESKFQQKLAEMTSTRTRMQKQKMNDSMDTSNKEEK
# [21] = molecular target: NCK1 (prey, CIC format) (human) (UniProt P16333); test: SIMPL ELISA, bait-IN/prey-CIC
# [22] = molecular target: GTF2F2 (prey, CIC format) (human) (UniProt P13984); test: SIMPL ELISA, bait-IN/prey-CIC
# [23] = molecular target: CCNA1 (prey, CIC format) (human) (UniProt P78396); test: SIMPL ELISA, bait-IN/prey-CIC
# [24] = molecular target: T5, PEX11B (prey, CIC format) (human) (UniProt O96011); test: SIMPL ELISA, bait-IN/prey-CIC
# T5 sequence (looked up): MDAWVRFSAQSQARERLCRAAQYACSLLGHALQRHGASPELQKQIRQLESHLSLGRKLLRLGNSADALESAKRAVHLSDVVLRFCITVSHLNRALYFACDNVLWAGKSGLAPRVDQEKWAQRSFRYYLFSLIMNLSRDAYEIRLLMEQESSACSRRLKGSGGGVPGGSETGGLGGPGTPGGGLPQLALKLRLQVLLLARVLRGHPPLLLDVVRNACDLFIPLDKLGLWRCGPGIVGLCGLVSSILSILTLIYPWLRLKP
# [25] = molecular target: SRC (prey, CIC format) (human) (UniProt P12931); test: SIMPL ELISA, bait-IN/prey-CIC
# [26] = molecular target: RAD23A (prey, CIC format) (human) (UniProt P54725); test: SIMPL ELISA, bait-IN/prey-CIC
# Chain of RAD23A (prey, CIC format) (human) (P54725 whole entry): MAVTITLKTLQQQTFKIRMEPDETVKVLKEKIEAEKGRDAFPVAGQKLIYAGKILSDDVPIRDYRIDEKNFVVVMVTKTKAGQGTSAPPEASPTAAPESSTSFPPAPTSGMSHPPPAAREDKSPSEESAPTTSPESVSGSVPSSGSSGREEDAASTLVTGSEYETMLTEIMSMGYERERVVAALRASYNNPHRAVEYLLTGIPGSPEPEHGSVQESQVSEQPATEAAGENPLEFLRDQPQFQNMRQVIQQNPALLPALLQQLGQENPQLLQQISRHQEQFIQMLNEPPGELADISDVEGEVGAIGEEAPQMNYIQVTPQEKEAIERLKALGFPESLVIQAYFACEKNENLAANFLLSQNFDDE
# Chain of FOS (prey, CIC format) (human) (P01100 whole entry): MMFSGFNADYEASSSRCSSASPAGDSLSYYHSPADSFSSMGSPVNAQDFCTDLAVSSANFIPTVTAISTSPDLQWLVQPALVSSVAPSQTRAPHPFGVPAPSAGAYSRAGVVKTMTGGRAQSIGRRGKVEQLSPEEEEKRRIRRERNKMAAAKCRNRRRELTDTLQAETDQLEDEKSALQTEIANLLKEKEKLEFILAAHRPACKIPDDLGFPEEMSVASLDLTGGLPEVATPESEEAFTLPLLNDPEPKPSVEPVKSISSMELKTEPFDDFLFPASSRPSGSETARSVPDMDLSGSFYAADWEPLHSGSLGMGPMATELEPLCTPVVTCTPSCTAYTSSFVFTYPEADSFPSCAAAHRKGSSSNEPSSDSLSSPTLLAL
# Chain of RIPK2 (bait, IN format) (O43353 whole entry): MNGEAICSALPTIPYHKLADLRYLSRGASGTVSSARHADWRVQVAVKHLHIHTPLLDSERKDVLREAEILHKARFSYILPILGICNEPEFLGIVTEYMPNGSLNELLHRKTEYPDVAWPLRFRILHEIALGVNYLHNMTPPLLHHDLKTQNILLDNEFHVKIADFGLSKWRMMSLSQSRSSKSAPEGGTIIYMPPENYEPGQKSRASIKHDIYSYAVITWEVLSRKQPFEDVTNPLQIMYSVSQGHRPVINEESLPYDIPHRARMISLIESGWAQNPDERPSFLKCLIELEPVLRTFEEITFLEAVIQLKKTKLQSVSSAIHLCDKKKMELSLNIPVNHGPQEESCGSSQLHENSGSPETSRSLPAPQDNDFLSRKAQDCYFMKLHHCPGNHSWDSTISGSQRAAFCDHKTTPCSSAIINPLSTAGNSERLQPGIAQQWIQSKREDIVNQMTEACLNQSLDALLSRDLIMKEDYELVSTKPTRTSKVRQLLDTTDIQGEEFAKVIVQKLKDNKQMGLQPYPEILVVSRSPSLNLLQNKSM
# Chain of RAP1A (prey, CIC format) (human) (P62834 whole entry): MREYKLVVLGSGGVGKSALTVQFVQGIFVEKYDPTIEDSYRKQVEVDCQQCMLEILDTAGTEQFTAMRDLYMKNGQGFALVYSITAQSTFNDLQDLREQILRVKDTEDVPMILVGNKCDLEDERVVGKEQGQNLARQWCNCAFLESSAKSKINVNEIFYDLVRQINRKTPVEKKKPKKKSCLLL
# Chain of CDK6 (prey, CIC format) (human) (Q00534 whole entry): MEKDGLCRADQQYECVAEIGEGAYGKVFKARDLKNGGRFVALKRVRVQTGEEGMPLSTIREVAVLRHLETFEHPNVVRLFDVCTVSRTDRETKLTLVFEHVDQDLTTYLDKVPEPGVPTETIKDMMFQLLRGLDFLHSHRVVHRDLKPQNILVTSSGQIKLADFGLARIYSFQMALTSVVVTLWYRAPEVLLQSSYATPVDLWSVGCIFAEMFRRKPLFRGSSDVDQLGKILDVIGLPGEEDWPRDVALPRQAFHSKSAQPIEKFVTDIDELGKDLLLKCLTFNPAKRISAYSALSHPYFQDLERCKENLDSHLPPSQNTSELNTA
# Chain of IGFBP4 (prey, CIC format) (human) (P22692 22-258 limits assumed): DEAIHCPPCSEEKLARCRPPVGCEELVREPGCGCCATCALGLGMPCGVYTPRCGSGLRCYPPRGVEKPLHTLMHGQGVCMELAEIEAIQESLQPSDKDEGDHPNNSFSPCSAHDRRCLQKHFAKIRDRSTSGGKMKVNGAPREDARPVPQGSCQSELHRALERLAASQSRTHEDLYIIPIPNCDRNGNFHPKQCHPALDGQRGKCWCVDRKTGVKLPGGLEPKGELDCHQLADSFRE
# Chain of PEX16 (prey, CIC format) (human) (Q9Y5Y5 whole entry): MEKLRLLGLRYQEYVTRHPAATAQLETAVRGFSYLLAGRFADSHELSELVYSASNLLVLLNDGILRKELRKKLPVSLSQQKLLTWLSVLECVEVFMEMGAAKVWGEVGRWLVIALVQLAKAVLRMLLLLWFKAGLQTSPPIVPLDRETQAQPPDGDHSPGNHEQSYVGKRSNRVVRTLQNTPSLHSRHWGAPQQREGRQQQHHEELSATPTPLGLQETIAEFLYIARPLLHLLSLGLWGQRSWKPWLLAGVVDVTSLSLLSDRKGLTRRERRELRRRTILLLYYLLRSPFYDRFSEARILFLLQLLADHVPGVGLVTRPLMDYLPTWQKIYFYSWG
# Chain of CXCR2 (prey, CIC format) (human) (P25025 whole entry): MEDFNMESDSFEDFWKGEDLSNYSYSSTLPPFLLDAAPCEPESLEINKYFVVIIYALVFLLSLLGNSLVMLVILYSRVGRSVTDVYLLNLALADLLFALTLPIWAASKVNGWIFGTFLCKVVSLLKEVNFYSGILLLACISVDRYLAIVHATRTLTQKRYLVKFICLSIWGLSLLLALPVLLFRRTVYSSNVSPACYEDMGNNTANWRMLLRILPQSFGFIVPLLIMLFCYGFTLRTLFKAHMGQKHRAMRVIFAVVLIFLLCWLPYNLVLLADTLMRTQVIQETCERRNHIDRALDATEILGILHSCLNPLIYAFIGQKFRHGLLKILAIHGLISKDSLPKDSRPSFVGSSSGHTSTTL
# Chain of GTF2F2 (prey, CIC format) (human) (P13984 whole entry): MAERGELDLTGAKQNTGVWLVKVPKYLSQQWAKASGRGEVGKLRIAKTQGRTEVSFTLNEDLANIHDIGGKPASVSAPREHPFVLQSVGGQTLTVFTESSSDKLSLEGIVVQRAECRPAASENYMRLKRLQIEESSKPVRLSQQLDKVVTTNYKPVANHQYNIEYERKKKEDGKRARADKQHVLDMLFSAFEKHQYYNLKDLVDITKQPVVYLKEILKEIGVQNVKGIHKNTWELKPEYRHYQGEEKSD
# Chain of CCNA1 (prey, CIC format) (human) (P78396 whole entry): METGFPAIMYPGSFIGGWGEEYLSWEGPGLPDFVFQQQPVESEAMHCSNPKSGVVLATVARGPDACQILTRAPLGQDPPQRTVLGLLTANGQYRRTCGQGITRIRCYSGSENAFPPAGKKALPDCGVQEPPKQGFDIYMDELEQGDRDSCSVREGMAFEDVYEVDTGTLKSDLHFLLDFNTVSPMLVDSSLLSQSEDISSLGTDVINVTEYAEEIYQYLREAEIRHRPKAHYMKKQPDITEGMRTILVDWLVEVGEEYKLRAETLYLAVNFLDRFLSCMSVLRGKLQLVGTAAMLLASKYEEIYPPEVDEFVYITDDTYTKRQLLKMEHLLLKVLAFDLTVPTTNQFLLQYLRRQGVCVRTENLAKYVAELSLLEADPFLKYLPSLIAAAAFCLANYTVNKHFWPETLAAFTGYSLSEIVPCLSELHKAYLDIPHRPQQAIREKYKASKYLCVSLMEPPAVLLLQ
# Chain of HGS (prey, CIC format) (human) (O14964 whole entry): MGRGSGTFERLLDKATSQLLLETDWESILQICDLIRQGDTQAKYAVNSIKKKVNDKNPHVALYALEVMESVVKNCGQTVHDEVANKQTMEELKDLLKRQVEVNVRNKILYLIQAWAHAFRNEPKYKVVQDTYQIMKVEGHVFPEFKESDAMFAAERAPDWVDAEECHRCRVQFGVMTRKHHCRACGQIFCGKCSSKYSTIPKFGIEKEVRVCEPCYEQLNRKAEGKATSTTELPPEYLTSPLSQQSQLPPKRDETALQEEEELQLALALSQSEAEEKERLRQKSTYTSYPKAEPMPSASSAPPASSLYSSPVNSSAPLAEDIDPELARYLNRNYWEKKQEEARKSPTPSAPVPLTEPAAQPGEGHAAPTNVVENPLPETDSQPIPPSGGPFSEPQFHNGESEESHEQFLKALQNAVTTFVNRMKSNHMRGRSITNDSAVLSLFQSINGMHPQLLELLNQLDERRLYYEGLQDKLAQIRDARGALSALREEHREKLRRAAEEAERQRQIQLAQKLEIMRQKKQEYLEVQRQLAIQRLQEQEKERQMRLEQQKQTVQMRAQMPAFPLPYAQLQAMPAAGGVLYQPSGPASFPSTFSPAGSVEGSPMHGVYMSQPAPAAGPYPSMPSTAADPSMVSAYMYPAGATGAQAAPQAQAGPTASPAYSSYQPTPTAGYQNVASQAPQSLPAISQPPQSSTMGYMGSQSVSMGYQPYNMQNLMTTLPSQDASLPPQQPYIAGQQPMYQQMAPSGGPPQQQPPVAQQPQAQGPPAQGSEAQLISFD
# Chain of RPA3 (prey, CIC format) (human) (P35244 whole entry): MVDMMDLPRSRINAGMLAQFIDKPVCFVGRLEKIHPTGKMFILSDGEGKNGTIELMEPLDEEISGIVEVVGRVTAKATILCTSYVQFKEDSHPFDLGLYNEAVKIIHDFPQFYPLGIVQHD
# Chain of SKP2 (prey, CIC format) (human) (Q13309 whole entry): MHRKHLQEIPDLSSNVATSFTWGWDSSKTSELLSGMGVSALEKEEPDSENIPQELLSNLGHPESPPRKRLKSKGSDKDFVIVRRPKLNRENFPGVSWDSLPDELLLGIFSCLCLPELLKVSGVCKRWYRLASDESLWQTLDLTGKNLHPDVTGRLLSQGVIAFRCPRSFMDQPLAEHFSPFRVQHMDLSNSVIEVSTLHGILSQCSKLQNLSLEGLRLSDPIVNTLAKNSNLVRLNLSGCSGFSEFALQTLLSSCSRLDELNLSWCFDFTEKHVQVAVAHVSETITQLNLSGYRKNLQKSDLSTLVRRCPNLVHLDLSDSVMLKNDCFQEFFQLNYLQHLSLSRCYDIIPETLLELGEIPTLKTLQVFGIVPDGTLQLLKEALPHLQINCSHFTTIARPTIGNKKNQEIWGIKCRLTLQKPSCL
substance,measurement,setting,value
"GRAP2 (bait, IN format) (from UniProt O75791 1-330)",PLU mean,[1],0.131
"FBXA-215 (C. elegans bait, IN-V5/HA)",ELISA Value Replicate 1,[2],0.84
same,ELISA Value Replicate 2,[2],0.58
same,ELISA Value Replicate 1,[3],0.73
same,ELISA Value Replicate 2,[3],0.42
"DDIT3 (bait, IN format) (from UniProt P35638 1-169)",PLU mean,[4],0.0963
same,PLU mean,[5],0.642
"T10E9.1 (C. elegans bait, IN-V5/HA)",ELISA Value Replicate 1,[2],0.78
same,ELISA Value Replicate 2,[2],0.55
"FBXA-196 (C. elegans bait, IN-V5/HA)",ELISA Value Replicate 1,[2],0.81
same,ELISA Value Replicate 2,[2],0.51
same,ELISA Value Replicate 1,[3],1.1
same,ELISA Value Replicate 2,[3],0.28
"BAK1 (bait, IN format) (from UniProt Q16611 1-211)",PLU mean,[6],0.564
"HIF1A (bait, IN format) (from UniProt Q16665 1-826)",PLU mean,[7],0.324
"TNFSF10 (bait, IN format) (from UniProt P50591 1-281) (ligand)",PLU mean,[8],0.316
"PPP3CA (bait, IN format) (from UniProt Q08209 1-521)",PLU mean,[5],0.245
"MAPK7 (bait, IN format) (from UniProt Q13164 1-816) (enzyme)",PLU mean,[9],0.231
"IGF2 (bait, IN format) (from UniProt P01344 25-180) (ligand)",PLU mean,[10],0.525
same,PLU mean,[11],0.404
same,PLU mean,[12],0.943
same,PLU mean,[7],0.266
"SMAD3 (bait, IN format) (from UniProt P84022 1-425)",PLU mean,[13],0.399
same,PLU mean,[14],0.144
"RIPK2 (bait, IN format) (from UniProt O43353 1-540)",PLU mean,[15],0.881
same,PLU mean,[12],0.555
same,PLU mean,[16],1.17
"NF2 (bait, IN format) (from UniProt P35240 1-595)",PLU mean,[5],0.481
same,PLU mean,[17],0.836
"ARF1 (bait, IN format) (from UniProt P84077 1-181)",PLU mean,[18],0.301
same,PLU mean,[7],0.491
"RAF1 (bait, IN format) (from UniProt P04049 1-648) (enzyme)",PLU mean,[6],0.578
"FGF1 (bait, IN format) (from UniProt P05230 1-155) (ligand)",PLU mean,[19],0.334
same,PLU mean,[20],0.324
same,PLU mean,[21],0.374
"GTF2F1 (bait, IN format) (from UniProt P35269 1-517)",PLU mean,[22],3.24
same,PLU mean,[16],0.133
"CDKN1A (bait, IN format) (from UniProt P38936 1-164)",PLU mean,[23],0.516
same,PLU mean,[24],0.113
"PTK2/FAK (bait, IN format) (from UniProt Q05397 1-1052) (enzyme)",PLU mean,[25],0.599
"B2M (bait, IN format) (from UniProt P61769 21-119)",PLU mean,[26],0.0155
same,PLU mean,[9],0.0408
"CCND3 (bait, IN format) (from UniProt P30281 1-292)",PLU mean,[8],2.72
